# Measurements: PMC11532494 (Nature Communications, 2024)
# Values joined by “and” are separate entries in the source; they are usually repeats but may differ in a detail not shown here. Equal values may be shown once. Read-outs that look alike come from different tables or passages of the source. No end group written: not given here. *: point of attachment. AMC = Cc1cc(=O)oc2cc(N*)ccc12
# Key:
# RwDmhA (1b) = RwDmhA (1b) (Rhizorhabdus wittichii, UniProt A0A067XIQ6); format: biochemical
# Controls [1] = format: biochemical
# PsApaH (4) = PsApaH (4) (Pseudomonas sp. M30-35, UniProt A0A1Y0KY79); format: biochemical; conditions: for RFU means, PsApaH (4) / RFU*2 means, PsApaH (4): means of two measurements; for [AMC] (nM), PsApaH (4), means / [AMC] (nM), PsApaH (4): substrate screening; for [AMC] (nM), PsApaH (4), means: mean of two measurements
# Protocol: (§1) Experiments with SIRT2 and SIRT5 were supplemented with NAD^+ (500 µM). Thereafter, a solution of trypsin (25 µL, 5.0 mg/mL; final concentration of 2.5 mg/mL) was added, and the development of the assay was allowed to proceed for 90 min at room temperature before fluorescence analysis. […] To this end, a single category is given to all conversions >48% on the heatmap. […] For the H4-derived peptide LGKbio no positive control was available.
# VcHdaH (5b) = format: biochemical, Vibrio cholerae; conditions: for RFU means, VcHdaH (5b) / RFU*2 means, VcHdaH (5b): means of two measurements; for [AMC] (nM), VcHdaH (5b), means: substrate screening, mean of two measurements
# LcApaH (3) = LcApaH (3) (Legionella cherrii, UniProt A0A0W0SGS1); format: biochemical
# LpApaH (3) = LpApaH (3) (Legionella pneumophila, UniProt A0A2S6EWV0); format: biochemical
# BsAcuC (2c) = target: T1, BsAcuC (2c) (Bacillus subtilis, UniProt P39067); experiment: Substrate screening assay (acyl-peptide-AMC); format: biochemical; conditions: for RFU means, BsAcuC (2c) / RFU*2 means, BsAcuC (2c): means of two measurements; for [AMC] (nM), BsAcuC (2c), means: substrate screening, mean of two measurements; for RFU*2, BsAcuC (2c): two measurements, single values
# T1 construct: made in house; host or cells: E. coli BL21 (DE3)
# T1 sequence (P39067 1-387): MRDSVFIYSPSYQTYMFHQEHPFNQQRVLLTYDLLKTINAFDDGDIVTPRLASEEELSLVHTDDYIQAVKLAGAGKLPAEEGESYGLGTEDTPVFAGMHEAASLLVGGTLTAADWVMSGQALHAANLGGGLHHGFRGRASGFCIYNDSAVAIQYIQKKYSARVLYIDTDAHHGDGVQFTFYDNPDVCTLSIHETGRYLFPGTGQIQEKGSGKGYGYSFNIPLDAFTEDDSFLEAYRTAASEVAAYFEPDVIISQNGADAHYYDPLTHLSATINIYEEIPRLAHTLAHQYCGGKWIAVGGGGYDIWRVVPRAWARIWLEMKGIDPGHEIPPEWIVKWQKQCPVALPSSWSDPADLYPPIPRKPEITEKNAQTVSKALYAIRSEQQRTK
# Protocol: as §1
# RsPrpH (1b) = experiment: Substrate screening assay (acyl-peptide-AMC); format: biochemical, Rhizorhabdus sp.
# Controls [2] = format: biochemical; remark: listed apart in the source
# KpHdaH (1b) = KpHdaH (1b) (Klebsiella pneumoniae, UniProt A0A377Z5F6); format: biochemical; conditions: for RFU means, KpHdaH (1b) / RFU*2 means, KpHdaH (1b): means of two measurements; for [AMC] (nM), KpHdaH (1b), means / [AMC] (nM), KpHdaH (1b): substrate screening; for [AMC] (nM), KpHdaH (1b), means: mean of two measurements
# VsHdaH (1b) = format: biochemical, Vibrio sp.; conditions: for RFU means, VsHdaH (1b) / RFU*2 means, VsHdaH (1b): means of two measurements; for [AMC] (nM), VsHdaH (1b), means / [AMC] (nM), VsHdaH (1b): substrate screening; for [AMC] (nM), VsHdaH (1b), means: mean of two measurements
# [3] = substrate screening, mean of two measurements
# [4] = substrate screening, measurement 1 of two
# [5] = substrate screening, measurement 2 of two
# [6] = two measurements, single values
substance,measurement,setting,value
"QPKKdec (QPKK-{AMC}; not fully specified (residue 4); printed as QPKKdec; also: decanoyl-lysine (which Lys not given here); UniProt P04637 317-320, looked up, fragment)","RFU means, RwDmhA (1b)",RwDmhA (1b); means of two measurements,33 RFU
same,"RFU*2 means, RwDmhA (1b)",RwDmhA (1b); means of two measurements,66 RFU*2
same,"[AMC] (nM), RwDmhA (1b), means",RwDmhA (1b); [3],32.23 nM
same,"[AMC] (nM), RwDmhA (1b)",RwDmhA (1b); [4],18.55 nM
same,"[AMC] (nM), RwDmhA (1b)",RwDmhA (1b); [5],45.90 nM
same,"RFU means, controls",Controls [1],16210.5 RFU
same,"RFU*2, controls",Controls [1],29980 RFU*2 and 34862 RFU*2
same,"RFU*2 means, controls",Controls [1],32421 RFU*2
same,"RFU, controls",Controls [1],14990 RFU and 17431 RFU
same,"RFU means, PsApaH (4)",PsApaH (4),97 RFU
same,"RFU*2 means, PsApaH (4)",PsApaH (4),194 RFU*2
same,"[AMC] (nM), PsApaH (4), means",PsApaH (4),94.73 nM
same,"[AMC] (nM), PsApaH (4)",PsApaH (4); measurement 1 of two,91.80 nM
same,"[AMC] (nM), PsApaH (4)",PsApaH (4); measurement 2 of two,97.66 nM
same,"RFU*2, PsApaH (4)",PsApaH (4); [6],200 RFU*2 and 188 RFU*2
same,"RFU, PsApaH (4)",PsApaH (4); [6],100 RFU and 94 RFU
same,"RFU means, VcHdaH (5b)",VcHdaH (5b),53.5 RFU
same,"RFU*2 means, VcHdaH (5b)",VcHdaH (5b),107 RFU*2
same,"[AMC] (nM), VcHdaH (5b), means",VcHdaH (5b),52.25 nM
same,"RFU means, LcApaH (3)",LcApaH (3),167 RFU
same,"RFU*2, LcApaH (3)",LcApaH (3),294 RFU*2 and 374 RFU*2
same,"RFU*2 means, LcApaH (3)",LcApaH (3),334 RFU*2
same,"RFU, LcApaH (3)",LcApaH (3),147 RFU and 187 RFU
same,"[AMC] (nM), LcApaH (3)",LcApaH (3),143.55 nM and 182.62 nM
same,"[AMC] (nM), LcApaH (3), means",LcApaH (3),163.09 nM
same,"RFU means, LpApaH (3)",LpApaH (3),175 RFU
same,"RFU*2, LpApaH (3)",LpApaH (3),316 RFU*2 and 384 RFU*2
same,"RFU*2 means, LpApaH (3)",LpApaH (3),350 RFU*2
same,"RFU, LpApaH (3)",LpApaH (3),158 RFU and 192 RFU
same,"[AMC] (nM), LpApaH (3)",LpApaH (3),154.30 nM and 187.50 nM
same,"[AMC] (nM), LpApaH (3), means",LpApaH (3),170.90 nM
same,"RFU means, BsAcuC (2c)",BsAcuC (2c),1377 RFU
same,"RFU*2 means, BsAcuC (2c)",BsAcuC (2c),2754 RFU*2
same,"[AMC] (nM), BsAcuC (2c), means",BsAcuC (2c),1344.73 nM
same,"RFU*2, BsAcuC (2c)",BsAcuC (2c),3196 RFU*2 and 2312 RFU*2
same,"RFU means, RsPrpH (1b)",RsPrpH (1b); means of two measurements,37.5 RFU
same,"RFU*2 means, RsPrpH (1b)",RsPrpH (1b); means of two measurements,75 RFU*2
same,"[AMC] (nM), RsPrpH (1b), means",RsPrpH (1b); [3],36.62 nM
same,"[AMC] (nM), RsPrpH (1b)",RsPrpH (1b); [4],31.25 nM
same,"[AMC] (nM), RsPrpH (1b)",RsPrpH (1b); [5],41.99 nM
same,"RFU*2, RsPrpH (1b)",RsPrpH (1b); [6],64 RFU*2 and 86 RFU*2
same,"RFU, RsPrpH (1b)",RsPrpH (1b); [6],32 RFU and 43 RFU
same,"[AMC] (nM), controls, means",Controls [2],15830.57 nM
same,"RFU means, KpHdaH (1b)",KpHdaH (1b),58 RFU
same,"RFU*2 means, KpHdaH (1b)",KpHdaH (1b),116 RFU*2
same,"[AMC] (nM), KpHdaH (1b), means",KpHdaH (1b),56.64 nM
same,"[AMC] (nM), KpHdaH (1b)",KpHdaH (1b); measurement 1 of two,48.83 nM
same,"[AMC] (nM), KpHdaH (1b)",KpHdaH (1b); measurement 2 of two,64.45 nM
same,"RFU*2, KpHdaH (1b)",KpHdaH (1b); [6],100 RFU*2 and 132 RFU*2
same,"RFU, KpHdaH (1b)",KpHdaH (1b); [6],50 RFU and 66 RFU
same,"RFU means, VsHdaH (1b)",VsHdaH (1b),82 RFU
same,"RFU*2 means, VsHdaH (1b)",VsHdaH (1b),164 RFU*2
same,"[AMC] (nM), VsHdaH (1b), means",VsHdaH (1b),80.08 nM
same,"[AMC] (nM), VsHdaH (1b)",VsHdaH (1b); measurement 1 of two,61.52 nM
same,"[AMC] (nM), VsHdaH (1b)",VsHdaH (1b); measurement 2 of two,98.63 nM
same,"RFU*2, VsHdaH (1b)",VsHdaH (1b); [6],126 RFU*2 and 202 RFU*2
same,"RFU, VsHdaH (1b)",VsHdaH (1b); [6],63 RFU and 101 RFU
"QPKKhex (QPKK-{AMC}; not fully specified (residue 4); printed as QPKKhex; also: hexanoyl-lysine (which Lys not given here); UniProt P04637 317-320, looked up, fragment)","RFU means, RwDmhA (1b)",RwDmhA (1b),55 RFU
same,"RFU*2 means, RwDmhA (1b)",RwDmhA (1b),110 RFU*2
same,"[AMC] (nM), RwDmhA (1b), means",RwDmhA (1b),53.71 nM
same,"RFU means, controls",Controls [1],3600.5 RFU
same,"RFU*2, controls",Controls [1],6176 RFU*2 and 8226 RFU*2
same,"RFU*2 means, controls",Controls [1],7201 RFU*2
same,"RFU, controls",Controls [1],3088 RFU and 4113 RFU
same,"RFU means, PsApaH (4)",PsApaH (4),94.5 RFU
same,"RFU*2 means, PsApaH (4)",PsApaH (4),189 RFU*2
same,"[AMC] (nM), PsApaH (4), means",PsApaH (4),92.29 nM
same,"[AMC] (nM), PsApaH (4)",PsApaH (4); measurement 1 of two,125.00 nM
same,"[AMC] (nM), PsApaH (4)",PsApaH (4); measurement 2 of two,59.57 nM
same,"RFU means, VcHdaH (5b)",VcHdaH (5b),50.5 RFU
same,"RFU*2 means, VcHdaH (5b)",VcHdaH (5b),101 RFU*2
same,"[AMC] (nM), VcHdaH (5b), means",VcHdaH (5b),49.32 nM
same,"RFU means, LcApaH (3)",LcApaH (3),70 RFU
same,"RFU*2 means, LcApaH (3)",LcApaH (3),140 RFU*2
same,"[AMC] (nM), LcApaH (3), means",LcApaH (3),68.36 nM
same,"RFU means, LpApaH (3)",LpApaH (3),57.5 RFU
same,"RFU*2 means, LpApaH (3)",LpApaH (3),115 RFU*2
same,"[AMC] (nM), LpApaH (3), means",LpApaH (3),56.15 nM
same,"RFU means, BsAcuC (2c)",BsAcuC (2c),1487.5 RFU
same,"RFU*2 means, BsAcuC (2c)",BsAcuC (2c),2975 RFU*2
same,"[AMC] (nM), BsAcuC (2c), means",BsAcuC (2c),1452.64 nM
same,"RFU*2, BsAcuC (2c)",BsAcuC (2c),3440 RFU*2 and 2510 RFU*2
same,"RFU means, RsPrpH (1b)",RsPrpH (1b),-23.5 RFU
same,"RFU*2 means, RsPrpH (1b)",RsPrpH (1b),-47 RFU*2
same,"[AMC] (nM), RsPrpH (1b), means",RsPrpH (1b),-22.95 nM
same,"[AMC] (nM), controls, means",Controls [2],3516.11 nM
same,"RFU means, KpHdaH (1b)",KpHdaH (1b),92 RFU
same,"RFU*2 means, KpHdaH (1b)",KpHdaH (1b),184 RFU*2
same,"[AMC] (nM), KpHdaH (1b), means",KpHdaH (1b),89.84 nM
same,"[AMC] (nM), KpHdaH (1b)",KpHdaH (1b); measurement 1 of two,166.02 nM
same,"[AMC] (nM), KpHdaH (1b)",KpHdaH (1b); measurement 2 of two,13.67 nM
same,"RFU means, VsHdaH (1b)",VsHdaH (1b),66.5 RFU
same,"RFU*2 means, VsHdaH (1b)",VsHdaH (1b),133 RFU*2
same,"[AMC] (nM), VsHdaH (1b), means",VsHdaH (1b),64.94 nM
same,"[AMC] (nM), VsHdaH (1b)",VsHdaH (1b); measurement 1 of two,35.16 nM
same,"[AMC] (nM), VsHdaH (1b)",VsHdaH (1b); measurement 2 of two,94.73 nM
